# Measurements from doi:10.1101/2025.06.12.659326.
# Molecular target: dynein light intermediate chain 2 (LIC2)
# Assay: anti-HA IP of LIC2-HA, GFP blot
# Conditions: reference: GFP-WT OCLN; sites S490
row,other: reduction vs WT [%],Substance
1,25,occludin (OCLN) (from UniProt Q16625) GFP-S490D
2,25,occludin (OCLN) (from UniProt Q16625) GFP-S490A
